Key:
[1] = target: NavAb N49K/L176G mutant (Arcobacter butzleri) (UniProt A8EVM5); assay: crystal structure; protein in DMPC:CHAPSO bicelles, sitting-drop vapour diffusion at 20 °C; cryoprotectant with 2.5 M sodium chloride, with or without 100 mM calcium nitrate; homotetramer around the four-fold axis
[2] = target: NavAb N49K/L176Q mutant (Arcobacter butzleri) (UniProt A8EVM5); assay: as above

Substance | stoichiometry N [1] | stoichiometry N [2]
NavAb N49K/L176G mutant (from UniProt A8EVM5 1-267) (natural protein) | 4 | 
NavAb N49K/L176Q mutant (from UniProt A8EVM5 1-267) (natural protein) |  | 4

From PMC10349818
